# Earlier results, collected in patent publication US8791066B2 (Novo Nordisk A/S, priority 2004, dated 2014).
substance,measurement,setting,value
GLP-1(7-36)amide,time until peak concentrations return to baseline / cleared from the circulation,administered subcutaneously,≤ 90 min
same,time to complete clearance,in vivo,12 to 13 min
